From a protein production outcome set (Wang et al. 2014)

Assay: label from the status in PepcDB records
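Further: failed if final PepcDB status was selected cloned or expressed and not failed if soluble or beyond.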

Sequence	protein production
MHKFIVIFVTLLISISVQTLAADLEIEEIELRETPQKMYDRLNQSISFPISFKNREQFERAAQEQGYSPDEFEHILQLLARLNLEPNVKTKVEFQDANSLIELLTSIAQTPLEQATVAMLKGRYIGRTEQKYQEAIAFYNQALSHINDSVDLGSMLLKHTIHEHLGLLHLVIRQDVPALMHFHTYRDIAYKLRNDYLIAAAESKLGHYYNKNQQLTKSLQHYSEAVRLSNRSNYPSMKTHLQLQLAKVYRDLKQWDEALKNAHEAAAGFKKLGNDTYLSSCMTVIAMVYGEQGDWNRAIDYYLNAQQLDAKRGNYIAQGLNFHNLGQAYSHLNDNVNALKYLLMANKIFTDKQSHHYLVYNELLIGEIAQSKQDWTLMMSHAEHALALASNLALLDEQKSALTQIALSAEKMQDQAKVISTQKRIIELNNTSKNTAKDPAVAASVLAEQQLKLELNMVQGKLNDAIESAKETNKLLALSGVILTLLVIAIIALLNQRQKSRRQNESLLQLTLEEPFTHHKGYAALLRDLGPNTPHTRTTALALIEFRDHLMTDLNHGQYFANAITCQLASHISNSLFMPVYVIRQGLFAVRFTETVDPQQALTQLQQQLDKNAFTAIFNLGFINLPLLTKTEINIAPKLLFETVQMALAGARSLPSNTCHYVSLRALDFVPPTLFADPLFLHLEKGIERGLIRVETNAMKEDIVWPCWENNQNRHLLGNI	failed
MHKTAFIWTDEYYNYSFPDYHPFKSLRESMTKRLLEERGAFHFITLVEPKSIPEEALQLVHSKEYIEFVKYKSKEGQGYLDDGDTPAFKGIYEAALIRVSGSVKALELIKSGEFNHTINIGGGFHHAKRNRAAGFCVFNDVALISKLGESFFSRIAIVDIDGHHADGTQELLIDDNNILKISLHMFHPNFFPGTGDVNEIGLGKGEGYTINIPLPPGTGDDGYLLAFDEIVVPAIERYKPELIILVAGGDSHFNDPLVELKLSTHGYLDVVTKIHRLVHEYSNGRLIMLGGGGYNYDATARIWTISIAEIAGIYDLEYETLHDSFSTKSSQFVMEKIRNTISLIKKIHSLN	failed
MHKVLVPFDGSEHAMRALGYVIELSGDLNKPLEVHVLNVQASPIDYSLYLAPDMIDGVKAGLKNEGKRVLDDAIALLAAAGVPFQAHVDLGNVAEQVEAEVQRLGCDAVVMGTRGLGNFGGLLLGSVATRVIHEVSVPVTLIK	failed
MHKVVIVGRPNVGKSSLFNRLLKKRSAVVADVPGVTRDLKEGVVETDRGRFLLVDTGGLWSGDKWEKKIQEKVDRALEDAEVVLFAVDGRAELTQADYEVAEYLRRKGKPVILVATKVDDPKHELYLGPLYGLGFGDPIPTSSEHARGLEELLEAIWERLPVRQIETEPEVAGIRLAIVGRPNAGKSSLLNAILGEERVIVSEEPGTTRDAIDVEFFFGGQRFVLVDTAGIRKRPENLVEELAIRRSLRAMDEADVVLLVVDPFQVGDRELKLANEALDRGKPVLLVITKWDLVDKEDAPKMRRLLREKLAHLDHLPRVFTSALTRQNLDRIFREAVRLHELNQTRVPTAELNRWVAVWTSRVQMPNFKGKPLKILYATQPEVAPPTFVFFVNHPEFVTRAFENYLKNRIGEDLGLREVPFRLVFRGRREE	not failed
MHLKKIWAVIYAVMLAAFSTFVLLDAFVIPKDRIKADEPIQSQEITDESIEAKAEAVITENSYKDDKISITISELREYDTSIYVADIQLADASYLRAGLADGTFGRNVTEVTSQIAQDSNAILAINGDFYGFRNKGYVMRNGYLYRETAQQGRQGNSRQEDLVIYEDGHMDVIEENEVAAQTLKDSGASQIFSFGPGLIKNGNITVDENSEVEQSMQSNPRTAIGMITPLHYIMAVSDGRTEASEGLTLYQLAQIMKGQDCVTAYNLDGGGSSTMWFNGEVVNKPTSYGSKISERAVSDIVYIGR	failed
MHLNNLNNFNNLENNGEYHCSGPIIKKPFRHIALTVPSSDITNFNEIFYVEPQYIAQAIRLTNTFQGAIDPLTLNFNFEKALQIANGLPNAGVTGTINQSVIHQTIEVSVMISQIKEIIRSVLGLVINSANFWNSVVSAITNTFTNLEPQVDENWIVWRNLSATQTSYFYKILFSIQNEDTGRFMAILPIAFEITVDVQKQQLLFITIKDSARYEVKMKALTVVQALDSYNAPIIDVFNVRNYSLHRPNHNILQNLNVNPIKS	not failed
MHLPHFALSSVLSLTLCAIPNLGFASSNQTEDSTQARPTWLRDIALSPDGQKIAFTYAGQIWLVPAQGGDAVALTESGVYSETPIWSPDSQSIAFTADRYGLGDVFILSIQGGESRRLTYHGAKDIPYAFSADGQQLYFSSRRLGDDKANANVKQGSFMAQLYSVPAAGGREQRVLPIAISDLAISPSHSDILYTNQPSDEQPWRKGALSDATRDIWQWSPLTGKHTQITTFRGEDRNPVWSADGSSMYYLSEQAGSFNVWQQRFDGSEPVQITDHQKLPVRFLSASLQGDLAYGFDGEIWRLKAGAKQAEKVPVSIRRSAMPDGRHNVNFNLEATEMVVAPNAAEVAIVARGDVYVVSLLSGLTQRITDTPEAERDVSFSSDGYRLIYASEREGSWNLYQSYVNDGGKSFSSSLDIIEEPVLTTEQDVIQPLYSPNLKRIVYRENRNTLKVYDIEQDKTYTLLDAHALYSYFDKDLSYQWSPDSEYIVTRDRAMSNGDIQLLKFDGSEAPINLSQSGFSEFAPQFSADGQWVYWLTDAKGLRDIDDMVVQYDVYGVALNREAKFNFNKTQEQLWLEEEIAAEKNLGPGQNPPAELTVVENKGLKQRTMRMTPTSLNIIFKHLTHDNQALIIAYQLGDSVQISEINLRSGEMTALFNRLSEDAALLAMASDDASLLIMGEHGIENLNVLTGESKFVRYEAKANFDFRAEIRLLV	failed
MHLSLLVPFLFWITGCCTAEDPVTGPEEVSGQEQGSLTVQCRYTSGWKDYKKYWCQGVPQRSCKTLVETDASEQLVKKNRVSIRDNQRDFIFTVTMEDLRMSDAGIYWCGITKGGLDPMFKVTVNIGPAIQVPITVPTMPPITSTTTIFTVTTTVKETSMFPTLTSYYSDNGHGGGDSGGGEDGVGDGFLDLSVLLPVISAVLLLLLLVASLFAWRMVRRQKKAAGPPSEQAQSLEGDLCYADLSLKQPRTSPGSSWKKGSSMSSSGKDHQEEVEYVTMAPFPREEVSYAALTLAGLGQEPTYGNTGCPITHVPRTGLEEETTEYSSIRRPLPAAMP	not failed
MHNFLIIGAFISLGILLRRFKALPEHTPFVLNKIAINVCLPALILLNAPKIAFTRDAVTAAIIPWALLALSVGLVLLGAKIWQWPRPVVGVLLLIVPLGNTSFLGVPIIRTFFGADGLPHLIVYDQIGTMMIFATYGSFILSLYGQDGTLSVSAVVRKMLLFPPSLALAAGLALKSWSYPDGLSLALHYLALPLVPVVMTAIGLQLRLRLPPHLAAPVGIGLGIKMLAAPLAVLVACRLVDMNGLAVGVSVVEAGMPPMVTAGALAVVAGMEAELAIALVGIGILCSFGSLPALFWLVSL	failed
MHPASFDDHIFRLLIEAVDDYAIYIIDAQGHILTWNNGAERNTGYNADEIIGQSFELFYTPEDLATQLPAKGLLHANQLGHYENQGWRVRKNGKRFWGHITLSALHDSEHNLQGFVQVTRDLTD	failed
MHQPHLSAEEKQHSHDHLSLDLIEAQYQLKNSAGKKNAKSVLVLVSGIELAGKGESVKQLREWVDPRYLRVKADPPQLLTTNQTFWQPYSSFIPAEGQIVVLFGNWYSDLLTTAMHVSKPLDETLFDAYVNSMRAFEQDLKNNHVDVVKVWFDLSWKSLQKRLDHIDASERQWHKLHGLDWRSKKQYETLQKLRQRFTPDWVFIDGEDEALRDREFAECILKALKDVPDHVQQADAAWTQSVVPQALLQPSSEVLEKAKYKKKLKKLTRRVADALRYDQRNVIVVFEGMDAAGKGGSIKRIVKRLDPREYDIFTISAPEKYELRHPYLWRFWTKLQNCSDIRIFDRSWYGRVLVERVEAFASDIEWQRAYDEINRFEKDLTDSQTVIVKIWLSISKEEQEKRFEAREKTPHKRFKITEDDWRNRAKWDEYLNAAADMFEHTSTDCAPWTIIATDDKPTARIKMLKAILKQLKSK	failed
MHQSVIDPQGLIDLKILIVIALCLLFSPHIAKILRLPLSATEIILGAIIAYFGFIGKSENFALLANVGFYYLMFIAGMEVNLRAFFNMDKEIAKKSFFYIFLLYALSSLIVWIFGLSLVFVIIIPVMSVGLLSLLFKDFGKECYWLNIAMIVATLAEVISIVLLTIAGAFLREGTGIIDVAQSILYLNIFLGLCLLGFKMLGVLFWWYPQLKVVLMPWEDKNEKDIRFCMAIFILIIVAMVITKLEIVLGSFIAGSFIATFFDHKKDLEHKLSTFGHGFLIPIFFIHIGSTFDLKMILDYKIVLQAFLLMFVMVGLRILCASVFLKRIGFKNMILFGLSHSMPLTLLIATATLGYSGKVIDEKLYSALILTALFEAIIVMSMIKFLSNSKK	failed
MHREQAPEHRDRTSEHRDRTPERRDRTPEPPGRASGPAAPAPASEPPGTDLGWLLEDLVARTDHVRQAVLLTADGLPLSASDGMRARDIEHLAAVCSGFHSLARSAGERFAAGDVRQTMVMLDDAYLFITPAGDGSRLAVLSEVQTDVGQLAHEMALLVRRVGRHMDAAVRSAVHSAGS	failed
MHRKPICAALAIISAATLTTSLAYGMTAVELPAGAPADKPVGKLEQVQAFYDAMPTGVTVTETGRIFVNFPRWGDKVPFTVGEVRDGKVVAYPDLAVNHENPKDPGDGLISVQSVVADGKGRVWLLDTAAPEFAAPRPQGAKLVAVDLATNKIVKRLVFPDNVILPSTYVNDMRFDFRQGSQGTVYVTDSSVSGPGAIIVMDIASGHAVRRLSGAKATSADPAFVPVVEGVPVLGDGPDGTRKPVHVAADGIALSADGKTLYFSPLSSRHLYSVATELLNDSAVNEQQLAAAVQDLGEKGASDGLEADADGAVYAGDYEHNAIRKRLPNGVWQTVAHDPRMLWPDTLSIGPDGYLYFIVNQLHRQAGFNSGHDQRKKPYSLLRVKVATAPAPTH	failed
MHWTIIGGGIQGTAIAQKLLSSGLTTDLLTIIDPHETFCQRFNSYTNRIEMPYLRSPIVHHVHPQPFHLKQFAKQHQYTNAFYGPYQRPELTMFMNHIAHASKQYQLEDCLVQGLVQTLDKQEDKWHIKLEDGQIITTDCVVIAIGSTNIPFMPDILKDKQNVNHIFEKEHDQVVYDKTDHIVGSGITAAHLALKLLNHDNDKKI	failed
MHYDVIVIGGGPSGLMAAIGAAEEGANVLLLDKGNKLGRKLAISGGGRCNVTNRLPLDEIVKHIPGNGRFLYSAFSIFNNEDIITFFENLGVKLKEEDPGRMFPVSNKAQSVVDALLTRLKDLGVKIRTNTPVETIEYENGQTKAVILQTGEVLETNHVVIAVGGKSVPQTGSTGDGYAWAEKAGHTITELFPTEVPILSNEPFIRDRSLQGLALRDINLSVLNPKGKAIISHKMDMLFTHFGLSGPAALRCSQFVVKALKKFKTNTIQMSIDALPEENSEQLFQRMLKQMKEDPKKGIKNVLKGYVPERYFLFLLEKNEIDGSEQAGQVSHEKIRALVKDFKEFTVNVNGTQSIEKAFVTGGGVSVKEINPKEMSSKFTNGLYFCGEVLDIHGYTGGYNITSALVTGRIAGTTAGENAKMQY	not failed
MHYHGSCHCGTIRFDVEGELTGAMSCNCSICRRKGALLWFVPRDHLRLATPDEQIATYTFNRHLIKHRFCPTCGIHTHGEGVDQQGRAMAAINIRCLDDVDLDAVAVHQYDGRAA	failed
MIARIPKDIPDLPAIPGMPVLMPSAVPAAAVVAPTRRPLTTAFRLLVALAATAGVTIDLILGSPLRVLTYFTIQSSVLVALTFTLSAWRAWAARRPLPALLTGGTLLYAVITGLVYHLLLAHEPAPFTMTGQAGPLTGWQALTNQLLHTAVPVAVVLDWLLLTGSGRLRLRQASAWLLYPLAYLALTLARGELILPGTPGRYLYPFLDVEQHGYKSVLGNALLLGLAFYALAVLLVTLDRVRPNPLRRRAKNGFRLQPPVG	failed
